Experimental data published in patent US20200291098A1 (PANASONIC INTELLECTUAL PROPERTY MANAGEMENT, published 2020).

Assays:
[1] = biological target: recombinant nucleoprotein (NP) protein derived from influenza virus H1N1 to which a Flag tag was fus (influenza virus H1N1)
[2] = biological target: intranuclear protein derived from type-A influenza virus subtype H1N1 (A/Hokkaido/6-5/2014) (type-A influenza virus H1N1 …)

Chain of recombinant nucleoprotein (NP) protein derived from influenza virus H1N1 to which a Flag tag was fus (influenza virus H1N1) (P03466 whole entry): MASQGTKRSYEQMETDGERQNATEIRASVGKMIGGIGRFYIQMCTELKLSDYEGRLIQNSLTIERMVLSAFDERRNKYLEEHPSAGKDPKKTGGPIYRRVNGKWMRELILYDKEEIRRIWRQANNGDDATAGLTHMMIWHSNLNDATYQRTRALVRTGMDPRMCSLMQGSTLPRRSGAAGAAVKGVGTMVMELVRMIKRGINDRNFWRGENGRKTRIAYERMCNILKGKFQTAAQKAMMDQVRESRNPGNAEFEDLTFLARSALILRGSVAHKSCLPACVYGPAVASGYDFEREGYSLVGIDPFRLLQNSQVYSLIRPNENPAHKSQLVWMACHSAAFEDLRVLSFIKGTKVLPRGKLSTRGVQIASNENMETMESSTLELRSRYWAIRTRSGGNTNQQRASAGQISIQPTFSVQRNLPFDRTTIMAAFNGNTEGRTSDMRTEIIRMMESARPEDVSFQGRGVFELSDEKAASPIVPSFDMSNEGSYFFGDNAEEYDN

B1: VHH antibody consisting of the amino acid sequence represented by SEQ ID NO: 8 (VHH)
VHH: EVQLVESGGGLVQPGGSLSLSCAASGFTFSNYYMGWFRQAPGKERQSLATVNSGGTGEAYADSIRGRFTISRDNAKNTVTLQMSSLQPEDTAVYYCARVDGRVLSTIVVSYDYWGQGTQVTVSS
Kd [1]: 0.201 nM | EC50 (read off the curve) [2]: ~8 ng/mL
